The record followed here is a protein production outcome set (Wang et al. 2014).

A short description of the series: label from the status in PepcDB records.
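Further: failed if final PepcDB status was selected cloned or expressed and not failed if soluble or beyond.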

Regarding “MNPDSQHHATFNPGKGEGSPVGIAILGYGTVGSQVLRLLTENHNDFQHRAGGPLEIKGVAASSVEKHRGSLADQLGLLTDDARSLIARDDVDIVVEVIGGIDYPRELILEALHSGKSVVTANKALVAAHSEELAAAADEAGVDLYFEAAVAAAIPVLGPLRRSLAGDQIQSVAGIVNGTTNFILDAMDSTGASYDDMLAEATRLGYAEADPTADVEGHDAASKAAILASLAFHTRVTYADVYCEGISKITADDINAAKEAGFTIKLLAICERLNVDGVEKVSARVHPTLVPRNHPLASVDKSFNAIFVEAEAAGRLMFYGNGAGGNPTASAVLGDIVGAARNKVFGGRAPGESTYADLPIAPFGEVPTRFHIDMEVEDRVGVLADLAKTFSNHGISLRTVRQAEKDGHARLIVVTHTAKESELEATVEQIKNSDSVKKINSVIRLAGE”, the protein production entry was “failed”.
“MNPENKMMLMAYGIFAIAGIISGILAYAPLGWIIGWIIYILAPKLLLNLVPDLPEELRNERVILRKTFWSFFFFWLYFTGLTYTLITNYEPVAYYEKALYYNITKG”: the protein production entry is recorded as “failed”.
In the case of “MNPKHSCTNFGADIPVNSQLIVTTSELRQKLKEKNKFILVDNRTWDEHIGKVSGYTYYDKKGRIPGALYGHSGSDSVSLEEYRNIDNTMRNKYEILEMWDKENIDVNKQLIFMCGSGWRAAEVLTYANVIGVENTSLYSDGWMGWSLDNSNLIEVGEHKLEHHHHHH”, the protein production entry is listed as “failed”.
Turning to “MNPLDLIAKRAYPYETEKRDKTYLALNENPFPFPEDLVDEVFRRLNSDALRIYYDSPDEELIEKILSYLDTDFLSKNNVSVGNGADEIIYVMMLMFDRSVFFPPTYSCYRIFAKAVGAKFLEVPLTKDLRIPEVNVGEGDVVFIPNPNNPTGHVFEREEIERILKTGAFVALDEAYYEFHGESYVDFLKKYENLAVIRTFSKAFSLAAQRVGYVVASEKFIDAYNRVRLPFNVSYVSQMFAKVALDHREIFEERTKFIVEERERMKSALREMGYRITDSRGNFVFVFMEKEEKERLLEHLRTKNVAVRSFREGVRITIGKREENDMILRELEVFK”, the protein production entry was “not failed”.
In the case of “MNPPDISVLIVSFNTRDLLRRCLASLRDQAGGTGIETIVVDNASRDGSADMVEAEFPDVRLIRSPVNLGFGNANNLAFTQSRGRYLVLLNSDACLAPGLLDAASKRMDACPDVGMAGGRLVGPEGGWQPSARMFPSLLNEFLVLSGLAHRYPKSRLFGRFDRTWADPSEEAGVDWVPGAFAILRRDLIDRIGFFDPRFFLYYEEVDLCRRIRAAGCKIMYWPELVITHLGGESAKTLSDMEFSSHASQLTLWRMRSQALYYRKWHGLALAWSAKTLEQLWHWLRALRHRRSAPAKAHDSEALIRLWNRAWKETEGGRVSPPQPWLEHHHHHH”, the protein production result is reported as “failed”.
As to “MNPPEKLLTAENPALRQRAKAMRQEMSEAEAKLWQHLRAGRLNGYKFRRQQPMGNYIVDFMCVTPKLIVEADGGQHAEQAVYDHARTVYLNSLGFTVLRFWNHEILQQTNDVLAEILRVLQELEKQPAR”, the protein production entry is recorded as “not failed”.
The value for “MNQEFFMLSQAMVEHLNEQINLEFFSSNLYLQMSAWCEDKGFDGAAEFLRAHAVEEMQHMQRLFTYVSETGALPILGAIAAPRHDFASLGEVFRETYQHEQKITQQINKLAHVAFTSQDYSTFNFLQWYVAEQHEEEKLFKGILDKLELVGEDGKALFFIDKDLAALAKKGSSSVMDAPAE” was “not failed”; that for “MNQLIFDFAAHDYPSFDKFLGTENAELVYVLRHKHGQFIYVWGEEGAGKSHLLQAWVAQALEAGKNAAYIDAASMPLTDAAFEAEYLAVDQVEKLGNEEQALLFSIFNRFRNSGKGFLLLGSEYTPQQLVIREDLRTRMAYCLVYEVKP” was “failed”; that for “MNQLSRSACTAPQRGGAWQWIACWALLLFTLLVAPLAAAQAVQGNASQEAALTVAPAPRVGVVTMQPGEVFFERFGHDAIVVVDPRTQQATSYNFGFFDPSEPDFVPRFARGDMMYYLVALPLEEDLSQYRDAGRGVSVQWLDLPPDQARALAEGLAVRSQPENARYHYDYFMANCATMVRDTLDRAMGGALKSQLAGRSRGNTFRSEAVRLASPAPWMWLGFDLGLGPYADRPLSRWEEAFVPMRLADSLTQVHNSAGRPLVQSTQVLLPHRIAPEPAEQQRHWWPWLLTGLIVAAGVLALGRRQRLLAGLALPFWLLCAIGGGLLVYLWGFTAHASAWGNRNLLLVNPLCMLLWFGGIRLQLGHRPGRWFNVLSWVVAACALAALVIHWLSFQAQDNLQWVMLLLPIHTALAIALRLRDLPVRTR” was “failed”.
Consider “MNQLTSSFIQNLAEDNIYKLPPHSIEAEQSVLGGLMLDNQAWDKVADIIIESDFYRQDHQLIYQHISRLIEQNKPADVITVAESLENAAQLQHAGGLAYIGAIAQNTPSAANIRRYAEIVRERSIMRKL”, for which the protein production result was “failed”.
As for “MNQPASAYFMDERKDPVETHTLSVLVQNEPGVLARVIGLFSGRGYNIESLTVSETEAQKHVSRITIVTTGTLAVIQQIKHQLDRMVPVYRVVDMTLSGRSIERELAMVKLRGVGEHRVEALRLAEAFRARVIDATIESFVFEITGNSAKINQFIDLMRPLGLVEVSRTGVAAIGRGPEGM”, the protein production entry is reported as “failed”.
For “MNQPFLSVVIATFNVAEVLRECLHSLASQTFRDFEVVIQDGASTDGTLAVAQEAAGRLPRLSLASVADSGIYDAWNRALPRVTGDWVLFLGSDDTLAGPDVLAQCARRLADLPPQVLYACGDALEVYPDGSSRAVTCTAEGATRRMADHIPFCHSSLWHRACLFEARHFDATLRIAADYDLICRTWPHDGVGHTLGITVTHMGVGGVSSSPAHRLRTQWELVRVAARHGHGAFSRRRLVPLCKAVGLWVLCRLAGRRASVMLDRLRVMRGLPPCWTTADPARVGGRDSARGDALEHHHHHH”, the protein production result was “failed”.
For the sequence “MNQSLSPQQSPGFLFIAVSMITCLILLINVSFKIILLGGLVFAINSLICPLIAALFLFALRNCTFKEQRHLLNICLMTLYMFCIGVYVLVNLPAAEYMHDNPAYQVIFEEIPKKFFATTIAFALSFYLPHLLFCTKNDRVLSTPKQCVLLALLGGVSFFCLDFYLLFSAPHAHSFKQIFIDSFMISSLLLLIIGVVYLTFLLNDKQHKGKALIETTELTLFPIYQYLICFAVTVMLVCLACEYRIIAINKDLVLSASCIFFPITIIISSIVGELWGYQANLKLALALLAAQFIFDMLLMGSVALPSPPFFNLNPFYHYIMPRRLSAASLSLFVTFLGNAMLLHYLKYSKWKINRSLRILIANISVNSLLCLVDYSLLYGGIYPYEQIINLAVSVWQYKLLTALIALPVILWMCKILERNYSLVVQTERN”, the protein production result is “failed”.
In the case of “MNQTRVLLIFSWLTVATLLWMDWSKNKNETLEISASHNLGVDSNLELEHAVPQIHAGAVPLQKDSQLIAAAPKVPVINVTTDVLQLKLDGFSILAADLLRFPQSKDRGAKPIKLLTDDPNYPYSATTGWVSQSNSPVPNLSTFLPEQPDVSYKLANDQNRLVVPFIWTAANGVSIRRTFTFERGRYAILIRDEIRNSGETPWNAYVFRKLSRVPIPNILNRAMTNPDSFSFNGAVWYSEKGGYERRAFKDYMNDGGLNREIGGGWIALLQHHFFTAWIPQKDQASLYLLAQNGSRDIAELRGPAFTVAPGQTTTTEARLWVGPKLVEQITKEHVKGLDRVVDYSRFQLMALIGQGLFWILSHLNSLLHNWGWAIVGLVVLLRIAMYPLSASQYKSAAKMRKFQPRLQQLKERYGEDRQKFQQAMMELYKKEKINPMGGCFPILIQMPIFFALYWVLVESVELRQAPWLGWIQDLTTRDPYFILPLLNIVIMWATQKLTPTPAGMDPIAGKMMQVMPLIFGVMMAFVPSGLALYWVINGGLNLLIQWWMIRQHADFSRKRSRENIK”, the protein production result is reported as “failed”.
Consider “MNRARDWLEQARHNLRHAQGSLGLGDYAWACFAAQQAAEAALKGLHLARGQVAWGHSILDLLADLPEDVDVPEDLVEAAKVLDKYYIPTRYPDAHPAGPAARHYTRLEAEEALDLAQKILAFVEEKL”, for which the protein production entry is “not failed”.
“MNRAREINYLNSIALHQPFGIVGVSGETGIGKTTVLNFVNPEGVFTVRVNISLRDSMESILYDLLHSLALSLEKVEEVSDLAKEVRKWITDEVSTIKGFSLGVSFGVNASLTHEKSIRPRFNFFKAREKLGELIKQTVQRKGKFLLIIDELDKEKKEDVLRVIDSIKNFIIMEDFVVILSLPFSIYREYAADRLRWNEAGNLENIFTDIVFVEPLKKLEIKELIIKRLGSYIELIEDGVLDIVADFSDGNPRDGLWILTKAIYDNIHKELLSKEDLINTINRTISEYTGLTLNLTENQKKAIRVLRGSVYSREKIIETLQKEGFKRTTAYSVMDQLLQKRILLVEKEGYRISGKFSYMEI”: the protein production entry is listed as “failed”.
The result for “MNRDLPVLRALRSLPDKVVGEALVSNDAISMRYDVDASTGKVVRPSHDLYGQSISGKVLIFKNTKGGVATGWALLNLKSRGTAPIALVCDTTNPVFVQGAALAGLPIMDGFRESPRSAVRTGDVVELDGISGELKVLRRGAGGQLEHHHHHH” reads “failed”; that for “MNRHLIHRRDILDTLVADLQAQQPDHIAVTGDLVNIALVNEFAPARQWLESVGPADRVSLVPGNHDAYVRSTAHRFAETFPDYISGDDATPGFPYLRRREAIAIIGVSSAVPTAPLRATGWLGAPQRAALEALLQSLAGERVFKVLLIHHPLQSRSRHKRLTDAADLIALLQRHPVDLVLHGHDHVHATVRIDTPFGAIPVVGVPSASAMNDRHRPSAAYNLFKISEGNDGWRCLEHHHHHH”, “failed”; that for “MNRICELLGIEHPIISGGMVWCSGWKLASAVSNCGGLGLIGAGSMHPDNLEHHIRSCKAATDKPFGVNVPLLYPEMDKIMEIIMREHVPVVVTSAGSPKVWTAKLKAAGSKVIHV”, “failed”.
Consider “MNRILQQVANQYWFRVSLTVICCLATICLGVHQSYVWFSVSACLLILSIIWQVRLYRLHIKQVLFMIDALENNDSAFRFPEESGTPESKQINRALNRVGHILYNVKAETAQQEKYYKLILDFVSTGLLVLNDNGAVYQKNKEALRLLGLNVFTHVRQLSKVDATLMEKIESCCSGDKLQVVFHNERGTVNLSIRVSEINVHKEHLRILALNDINIELDEKEIDSWIRLTRVLTHEIMNSVTPITSLSDTLLSMVEDKDEEISHGLQTISATGKGLLAFVESYRKFTRIPTPEPSLFYLKAFIERMVELARHQNPCDHITFHTKIDPADLILHADENLISQVVINLLKNAIQAIGDQPDGQIDIQVYCNETEEVLIEIKNNGPVIPPEIVEHIFIPFFTTKEGGSGIGLSISRQIMRLSGGSLTLLPDNKETKFILKFK”, for which the protein production result is given as “failed”.
Regarding “MNRINYIRQAEKKYHDLCYEQYKLFETGSWLYKPVKTVMDLMDHFEGQNNLQVLDLGSGVGRNSIPIAQQIQNTSGTVTCVDLLDSALTKLKTYTKEHGVFEVIKTEQAAIENYYIVPNTYDYIVAVSSLEHVQSEEDLTNVLHSIKEGTKTGGINCLIINSNIQEIDLHTKEELDALIEINLPTEDMIHLLKSIYKEWKEIKVEIKELVYDIVRDEKQIQLKTNAITFVVQK”, the protein production entry was “failed”.
For the sequence “MNRKILVTGATGSNGTEIVKRLAAKNVQVRAMVRDFDRAKKIAFPNVEVVEGNFDRPETLLEALAEVDRAFLLTNSTERAEAQQLAFVDAARQNGVKHIVKLSQFAADAHSPVRFLRYHAAVEAAIQGSGMTYTFLRPNLFMQGLLNFQSTITSQNAFYAAISDAKVSVVDVRDIADVAVVALTETEHEGKIYNLTGPQALTHAEMAEQLSAALNRQIAFVDIPSEVMRDQLLNIGMPPWQADGVIEDYAHYRRNEAAAVSSGIQDAIGKEPRSFNTFACDYAAMFG”, the protein production entry was “failed”.
